Measured values published in patent publication US20260242730A1 (POINTLOMA BIOSCIENCES, published 2026).

T1: recombinant human TROP2 protein (human, UniProt P09758 27-274)
T1 sequence (looked up): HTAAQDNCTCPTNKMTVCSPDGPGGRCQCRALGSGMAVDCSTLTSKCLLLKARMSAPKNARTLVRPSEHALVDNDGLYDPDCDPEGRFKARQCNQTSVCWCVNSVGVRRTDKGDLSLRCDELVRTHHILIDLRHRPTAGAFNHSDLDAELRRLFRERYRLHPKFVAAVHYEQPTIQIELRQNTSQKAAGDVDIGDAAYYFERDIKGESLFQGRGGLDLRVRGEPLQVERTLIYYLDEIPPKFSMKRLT

T2: recombinant human TROP2 protein (human, UniProt P09758 27-274)
T2 chain: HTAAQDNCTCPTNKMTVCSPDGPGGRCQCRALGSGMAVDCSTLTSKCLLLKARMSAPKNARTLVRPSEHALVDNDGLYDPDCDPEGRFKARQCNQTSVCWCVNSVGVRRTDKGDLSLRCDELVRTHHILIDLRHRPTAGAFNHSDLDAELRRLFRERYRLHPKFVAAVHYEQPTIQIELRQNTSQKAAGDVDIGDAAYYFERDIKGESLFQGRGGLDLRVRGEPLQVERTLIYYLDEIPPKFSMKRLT

T3: human TROP2 (antigen of panning and clone screening) (human, UniProt P09758 27-274, limits assumed)
T3 construct: also called human TROP2-His protein; TROP2-expressing CHOK1 cells
T3 sequence (looked up): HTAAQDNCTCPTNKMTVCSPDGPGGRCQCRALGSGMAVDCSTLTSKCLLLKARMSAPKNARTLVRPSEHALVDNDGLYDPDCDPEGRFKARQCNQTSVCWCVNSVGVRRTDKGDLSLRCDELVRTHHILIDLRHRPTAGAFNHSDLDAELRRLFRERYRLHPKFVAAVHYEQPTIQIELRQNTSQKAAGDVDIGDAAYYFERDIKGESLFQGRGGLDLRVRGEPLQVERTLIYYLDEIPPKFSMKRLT


molecular target: T4, human PD-L1 (antigen of panning and phage ELISA) (human, UniProt Q9NZQ7 19-238, biotinylated (panning antigen)); test: phage ELISA of clones panned on biotinylated human PD-L1
T4 construct: also called biotinylated human PD-L1
Source text: The animal boosted four times every two weeks. After confirming the serum titer against PD-L1, PBMC was isolated and used for phage display library construction. Anti-PD-L1 binders were isolated with the immunized phage display library using liquid phase Biopanning on biotinylated human PD-L1. Stringency was increased during successive rounds by decreasing antigen concentration, increasing the number and duration of washes, and/or changing the duration of selections. The panning process was repeated three to four times until the output phage enrichment was identified. The eluted phages were diluted and spread on a petri dish to grow single colonies. Individual phage clones were selected and amplified. 384 single colonies were selected and tested for specificity by ELISA. […] After sequencing the positive clones, three unique sequences were obtained based on amino acid sequences.

T4 sequence (Q9NZQ7 19-238 limits assumed): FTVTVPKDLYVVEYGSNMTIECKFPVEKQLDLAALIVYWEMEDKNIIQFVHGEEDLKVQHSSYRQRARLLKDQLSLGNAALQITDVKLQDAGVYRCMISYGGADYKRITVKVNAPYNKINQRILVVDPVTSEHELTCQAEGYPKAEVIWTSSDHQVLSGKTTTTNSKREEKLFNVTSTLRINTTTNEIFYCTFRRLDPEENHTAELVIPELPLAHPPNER

binding result	Binder
binds	anti-PD-L1 #PD1 VHH (VHH) VHH: DVQLQESGGGLVQAGGSLRLSCAASESIASINVMGWYRQAPGKQRELVAIITNRGTTSYPDSVKGRFTISRDNGKNTVYLQMNTLKPEDTAVYYCNAPWTDGINYWGKGTQVTVSS
binds	anti-PD-L1 #PD2 VHH (VHH) VHH: DVQLQESGGGLVEPGGSLRLSCAASGFTFNHYGMSWVRQAPGKGLQWVSTLFTTGSSQYANSVKGRFTISRDAAENTLYLHMNNLKPEDTAVYFCAKGVGLGSERGPGTQVTVSS
binds	anti-PD-L1 #PD3 VHH (VHH) VHH: DVQLQESGGGLVQAGDSLGLSCAASGRAFSLFEMAWYRQAPGKAREFVAAIMWRGGHTVYADSVKGRSTISSDNTKNTVYLQMNSLKPEDTAIYYCRGKVVGSDYWGQGTQVTVSS

molecular target: T1, recombinant human TROP2 protein; test: flow cytometry, titration of TROP2 protein on CAR γδ T cells

binding result	Binder
binds	TROP2 CAR with anti-TROP2 #PL02 scFv (VL-linker-VH) adopted from monoclonal antibody hRS7, on γδ T cells (other, not shown: small tags and cut ends, CAR on γδ T cells) DIQLTQSPSSLSASVGDRVSITCKASQDVSIAVAWYQQKPGKAPKLLIYSASYRYTGVPDRFSGSGSGTDFTLTISSLQPEDFAVYYCQQHYITPLTFGAGTKVEIKGGGGSGGGGSGGGGSQVQLQQSGSELKKPGASVKVSCKASGYTFTNYGMNWVKQAPGQGLKWMGWINTYTGEPTYTDDFKGRFAFSLDTSVSTAYLQISSLKADDTAVYFCARGGFGSSYWYFDVWGQGSLVTVSS

Molecular target: T2, recombinant human TROP2 protein
Test: binding of TROP2 protein to binder-expressing γδ T cells

EC50 [nM]	Binder
18.1	TROP2 CAR with anti-TROP2 VHH #TP9, on γδ T cells (other) QVQLVESGGGLVQPGGSLRLSCAASGFSLDYWAIAWFRQAPGKEREGVSCSGSRGSTHYADSVKGRFTISRDNAKNTVYLQMNSLKPEDAGVYYCAVGSTLYSLTPYEYDYWGQGTQVTVSSTTTPAPRPPTPAPTIASQPLSLRPEACRPAAGGAVHTRGLDFACDIYIWAPLAGTCGVLLLSLVITLYCKRGRKKLLYIFKQPFMRPVQTTQEEDGCSCRFPEEEEGGCELRVKFSRSADAPAYQQGQNQLYNELNLGRREEYDVLDKRRGRDPEMGGKPRRKNPQEGLYNELQKDKMAEAYSEIGMKGERRRGKGHDGLYQGLSTATKDTYDALHMQALPPR
14.4	TROP2 CAR with anti-TROP2 VHH #TP12, on γδ T cells (other) QVQLVESGGGLVQPGGSLRLSCAASRFTLDYYAIGWIRQAPGKEREGVSCISSSGGSTNYADSVKGRFTISRDNAKNTVYLQMNSLKPEDTGVYYCAATTYACSGYVPRAYEYDYWGQGTQVTVSSTTTPAPRPPTPAPTIASQPLSLRPEACRPAAGGAVHTRGLDFACDIYIWAPLAGTCGVLLLSLVITLYCKRGRKKLLYIFKQPFMRPVQTTQEEDGCSCRFPEEEEGGCELRVKFSRSADAPAYQQGQNQLYNELNLGRREEYDVLDKRRGRDPEMGGKPRRKNPQEGLYNELQKDKMAEAYSEIGMKGERRRGKGHDGLYQGLSTATKDTYDALHMQALPPR
17.7	TROP2 CAR with anti-TROP2 VHH #TP6, on γδ T cells (other) QLQLVESGGGLVQPGGSLRLSCAASGTLDYWTVGWFRQAPGKEREGVSCISSSDSSTYYADSVKGRFTISRDNAKNTVYLQMNSLKPEDTAVYYCAAGSLGYCSRSTPQYEYDFWGQGTQVTVSSTTTPAPRPPTPAPTIASQPLSLRPEACRPAAGGAVHTRGLDFACDIYIWAPLAGTCGVLLLSLVITLYCKRGRKKLLYIFKQPFMRPVQTTQEEDGCSCRFPEEEEGGCELRVKFSRSADAPAYQQGQNQLYNELNLGRREEYDVLDKRRGRDPEMGGKPRRKNPQEGLYNELQKDKMAEAYSEIGMKGERRRGKGHDGLYQGLSTATKDTYDALHMQALPPR
6.81	TROP2 CAR with anti-TROP2 #PL02 scFv (VL-linker-VH) adopted from monoclonal antibody hRS7, on γδ T cells (other, not shown: small tags and cut ends, CAR on γδ T cells) DIQLTQSPSSLSASVGDRVSITCKASQDVSIAVAWYQQKPGKAPKLLIYSASYRYTGVPDRFSGSGSGTDFTLTISSLQPEDFAVYYCQQHYITPLTFGAGTKVEIKGGGGSGGGGSGGGGSQVQLQQSGSELKKPGASVKVSCKASGYTFTNYGMNWVKQAPGQGLKWMGWINTYTGEPTYTDDFKGRFAFSLDTSVSTAYLQISSLKADDTAVYFCARGGFGSSYWYFDVWGQGSLVTVSS
3.65	TROP2 CAR with anti-TROP2 VHH #TP14, on γδ T cells (other) EVQVVESGGGLVQPGGSLRLSCAVSGFTLDWYAIGWFRQAPGKEHEGVACIDPSERSTYADPVKGRFTISRDNAKNTVHLQMNSLKPEDTAVYYCAADTLPCFFYGSMWPPPDNWGQGTQVTVSSTTTPAPRPPTPAPTIASQPLSLRPEACRPAAGGAVHTRGLDFACDIYIWAPLAGTCGVLLLSLVITLYCKRGRKKLLYIFKQPFMRPVQTTQEEDGCSCRFPEEEEGGCELRVKFSRSADAPAYQQGQNQLYNELNLGRREEYDVLDKRRGRDPEMGGKPRRKNPQEGLYNELQKDKMAEAYSEIGMKGERRRGKGHDGLYQGLSTATKDTYDALHMQALPPR
3.43	TROP2 CAR with anti-TROP2 VHH #TP2, on γδ T cells (other) EVQLVESGGGLAQPGGSLRLSCAASGFTFSTYAMSWARQAPGKGLEWVSGIYADGSGTYYADSVKGRFTISRDNAKNTLYLQMNSLKPEDTALYYCAQGYSDYDRRLGEYDYWGQGTQVTVSSTTTPAPRPPTPAPTIASQPLSLRPEACRPAAGGAVHTRGLDFACDIYIWAPLAGTCGVLLLSLVITLYCKRGRKKLLYIFKQPFMRPVQTTQEEDGCSCRFPEEEEGGCELRVKFSRSADAPAYQQGQNQLYNELNLGRREEYDVLDKRRGRDPEMGGKPRRKNPQEGLYNELQKDKMAEAYSEIGMKGERRRGKGHDGLYQGLSTATKDTYDALHMQALPPR

molecular target: T3, human TROP2 (antigen of panning and …); test: positive phage clones from panning on human TROP2-His protein or on TROP2-expressing CHOK1 cells, ELISA
Source text: After confirming successful immunization with TROP2 protein, PBMC was isolated and used for construction of a phage display library with the size of 2.42×10⁹ cfu. TROP2 VHH binders were isolated from the phage display library using solid phase panning on human TROP2-His protein and cell-based panning on the engineered, TROP2-expressing CHOK1 cells in two parallel discovery campaigns. […] Stringency was increased during successive rounds by decreasing antigen concentration, increasing the number and duration of washes, and/or changing the duration of selections. The positively identified phages were diluted and spread on a petri dish to grow single colonies. Individual phage clones were selected and amplified. […] After three rounds of screening on TROP2 CHOK1 cells, a total of 384 clones were selected, of which 163 clones were TROP2-specific as tested by ELISA. After sequencing the positive clones, 9 unique sequences were obtained based on amino acid sequences. In combination, a total of 20 unique sequences were identified.

binding result	Binder
binds	anti-TROP2 #TP20 VHH (VHH) VHH: EVQVVESGGGLVQPGGSLRLSCAASGNIKSTAVMGWHRQAPGKEREWVAIITTGEDRFSGDRLQYADSVKDRFTISRDNAKNTVYLQMNSLKPEDTAVYYCNVDVLYMADGRYARSEFWGQGTQVTVSS
binds	anti-TROP2 #TP6 VHH (VHH) VHH: QLQLVESGGGLVQPGGSLRLSCAASGTLDYWTVGWFRQAPGKEREGVSCISSSDSSTYYADSVKGRFTISRDNAKNTVYLQMNSLKPEDTAVYYCAAGSLGYCSRSTPQYEYDFWGQGTQVTVSS
binds	anti-TROP2 #TP4 VHH (VHH) VHH: QLQLVESGGGLVQPGGSLRLSCAASGFTLDDYAMRWFRQAPGKAREGVSCISRSDGTTYYADSVKGRFTISRNNAENTVYLQMNSLKPEDTAVYYCAADSLGCNGYSDWGVDYWAKGTLVTVSS
binds	anti-TROP2 #TP1 VHH (VHH) VHH: EVQVVESGGGLAQPGGSLRLSCAASGFWFSTYAMSWARQAPGKGLEWVSGIYADGSATYYADSVKGRFTISRDNAKNTLYLHMNSLKPEDTALYYCAQGYSDYDRRVGGYDYWGQGTQVTVSS
binds	anti-TROP2 #TP2 VHH (VHH) VHH: EVQLVESGGGLAQPGGSLRLSCAASGFTFSTYAMSWARQAPGKGLEWVSGIYADGSGTYYADSVKGRFTISRDNAKNTLYLQMNSLKPEDTALYYCAQGYSDYDRRLGEYDYWGQGTQVTVSS
